Assay results reported in the supplement of paper PMC10724198.
± gives the standard deviation of the averaged measurements.

Tested on: Saccharomyces cerevisiae
Assay: protein stability index of tFT-peptide fusion (C-terminal peptide) (PSI (0-1 scale)); higher = more stable (slower turnover)
Details: temperature: 30 C
Method: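 MPS profiling in S. cerevisiae of the yeast C-terminome library: the last 12 aa of each annotated ORF are fused to the C-terminus of a sfGFP-mCherry timer, after a GGGS linker. Cells are FACS-sorted into 8 mCherry/sfGFP bins and deep-sequenced. PSI runs from 0 (unstable) to 1 (stable); wild type and das1Δ backgrounds, two technical replicates each.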

[1] = genetic background: das1 deletion

Sequence	protein stability index [1]	protein stability index (genetic background: wild type)
KVKRLMDFLEED [NSL1 C-terminal 12 aa]	0.678 ± 0.0098	0.694 ± 0.024
KWQARQRGLQRF [PMP1 C-terminal 12 aa]	0.69535 ± 0.00066	0.704 ± 0.018
KWVGQYPVPGDI [SHM1 C-terminal 12 aa]	0.693 ± 0.0071	0.687 ± 0.04
KYFADLTQSITK [YBR242W C-terminal 12 aa]	0.719 ± 0.051	0.687 ± 0.029
LADSKHCSGLHK [ASF2 C-terminal 12 aa]	0.6837 ± 0.0028	0.703 ± 0.0086
LAFSGGLANSIA [DSE4 C-terminal 12 aa]	0.712 ± 0.00097	0.677 ± 0.024
LALYKKAYGIEF [STP2 C-terminal 12 aa]	0.686 ± 0.031	0.6671 ± 0.0058
LAPPPQKQSSSD [GRH1 C-terminal 12 aa]	0.758 ± 0.058	0.729 ± 0.029
LASEAAVGCNKS [YKL156C-A C-terminal 12 aa]	0.688 ± 0.0092	0.745 ± 0.055
LASKHSQYTSPQ [RGT2 C-terminal 12 aa]	0.72 ± 0.0086	0.662 ± 0.014
LCMSCGYVSAGK [YMR173W-A C-terminal 12 aa]	0.697 ± 0.016	0.749 ± 0.046
LDDIEKDLRANA [SWI4 C-terminal 12 aa]	0.7 ± 0.021	0.679 ± 0.012
LDISASLEKIAT [FMP52 C-terminal 12 aa]	0.677 ± 0.018	0.682 ± 0.011
LECTPIINLFIV [MNL1 C-terminal 12 aa]	0.644 ± 0.0069	0.13125 ± 2.3e-05
LEDSTRVYSNLM [ARP1 C-terminal 12 aa]	0.693 ± 0.007	0.6835 ± 0.0043
LEEELTKIGLLP [GRX8 C-terminal 12 aa]	0.706 ± 0.018	0.698 ± 0.0098
LEKLLKTVLNTL [ORC2 C-terminal 12 aa]	0.69009 ± 0.00049	0.696 ± 0.028
LENTLKDSGVLQ [GPA2 C-terminal 12 aa]	0.692 ± 0.002	0.717 ± 0.047
LESADKKKDVKA [DUS1 C-terminal 12 aa]	0.692 ± 0.0088	0.713 ± 0.015
LETDQDFLDGLL [YER034W C-terminal 12 aa]	0.708 ± 0.021	0.695 ± 0.0081
LEVTTKPREWVK [HEM13 C-terminal 12 aa]	0.687 ± 0.018	0.712 ± 0.069

Sequence	protein stability index [1]	protein stability index (genetic background: wild type)
LFSSRNTVCAPY [YIL134C-A C-terminal 12 aa]	0.7258 ± 0.0047	0.727 ± 0.018
LFSVLVALLALL [CRH1 C-terminal 12 aa]	0.661 ± 0.037	0.48 ± 0.017
LGSSMVQGRSIR [YPK1 C-terminal 12 aa]	0.71 ± 0.024	0.661 ± 0.0085
LHMNTNRLAGIR [SEC9 C-terminal 12 aa]	0.7133 ± 0.0013	0.718 ± 0.018
LHTLYLRPASAI [SSN8 C-terminal 12 aa]	0.701 ± 0.021	0.669 ± 0.03
LIDVVPRRPLPQ [HAP5 C-terminal 12 aa]	0.734 ± 0.033	0.723 ± 0.03
LIWELGDGQSGQ [INO4 C-terminal 12 aa]	0.7444 ± 0.0017	0.7182 ± 0.0015
LKALANETMSRI [VPS16 C-terminal 12 aa]	0.712 ± 0.011	0.706 ± 0.049
LKRISDIQADSS [PET494 C-terminal 12 aa]	0.692 ± 0.031	0.6987 ± 0.0012
LKSLKKNLTRDR [MTF2 C-terminal 12 aa]	0.722 ± 0.033	0.6605 ± 0.0051
LKSQSLTTGWSL [MNS1 C-terminal 12 aa]	0.7194 ± 0.0048	0.741 ± 0.058
LLCSDLVNGLMQ [SEC21 C-terminal 12 aa]	0.706 ± 0.029	0.707 ± 0.0075
LLDGGDGDEDAV [GON7 C-terminal 12 aa]	0.6942 ± 0.002	0.7 ± 0.036
LLEAFLRKEQKV [YGR174W-A C-terminal 12 aa]	0.596 ± 0.012	0.619 ± 0.019
LLEDQVPVETKA [PYC1 C-terminal 12 aa]	0.551 ± 0.018	0.582 ± 0.0095
LLEKLDIKDKKE [YVC1 C-terminal 12 aa]	0.661 ± 0.018	0.703 ± 0.024
LLISMIAAGILL [GAS2 C-terminal 12 aa]	0.5322 ± 0.0015	0.551 ± 0.017
LLKQLKQGKISV [NOT3 C-terminal 12 aa]	0.669 ± 0.022	0.6481 ± 0.0033
LLLGTVSATNAI [YPL062W C-terminal 12 aa]	0.6878 ± 0.004	0.706 ± 0.038
LLPGNTNLPWTS [ERG12 C-terminal 12 aa]	0.7093 ± 0.0045	0.742 ± 0.08
